Measured values reported in a protein production outcome set (Wang et al. 2014).

Test: label from the status in PepcDB records

Row | Sequence | protein production
1 | MTWSFTLGRLFGSELKVHVTFFLLIGWIGVSAYQMGGWPSAVENTAFVLALFACVVAHEYGHALTARRYGIRTPDITLLPIGGLARLDRMPEKPGQEIVVALAGPAVNVAIWAALTLVGVDTRFETLAAIDSAEPDFLGRLAMVNLFLAVFNLIPAFPMDGGRVLRAALSLTMDRVRATRIAAAAGQLVALLFGFAGLSGGNPVLVLIAVFVFIAANAEAQDVAMRAVTRRLLARDAMITRFEALGPTDTLATAAQAVLHTTQHEFPVLDGEGHLLGFVTRARLFAALAADHPRSDPAETVMDREIPQVPLASGLETVLDALYQGAPAVAVTSADGRMLGYVTRENVGELMVIQGR | failed
2 | MQLTSQAFSYGRPIPKKYSCQGVGISPPLSFSDVPREAKSLVLIVEDPDVPPSVREDGLWIHWIVYNLSPVVSNLAEGAQIFAVQGLNTAGEIGYCPPCPPDAKHRYYFYAYALDVVLSDEEGVTKEQLLEAMDGHIIATAELMGTYEKD | not failed
3 | MNYLPMMIVFPLIMAIIMNLLHGKEKAVKYITFITAAILIILPFISQYGYYYFGGHGVVNGWVSGIAYLYNPAKQAIIVTLSLIASLVLITGMGEKLKNNMFVTLSLMGFASIAAIVLADDIFNLYVFFEIVSIVQAGLVFLSGTEEAYKAGLRYMIMGNVAAALMLLGIAFLLASTGTLNITDMKHYLLVDNPMIYGGLLLLIVGLAYGAGLPPFHNVKADLYARSKGFISAMLQTYSKFVLVGLMIIILKLFNGLDYFASAHAVLIALGVLAMVFGVVMALLQSDYKKLLAYHAISQGGYVATGLALGTPLGIVAGIFHAINHVIYKSALFLGAYIVSCKRGSNLHKLGGLLPLMPSVAFMVLCAKLAISGIPPFNGFQSKWMLAQAAMQVNMPEIAIIMIIVSIGTFVSMMKAFYLIYLKPVDEETLKEYQNKEVPKLAVFSLFVLTALCIIIGLYPDIVTNYLWDYAKELGVNYYLK | failed
4 | MADDDVLFEDVYELCEVIGKGPFSVVRRCINRETGQQFAVKIVDVAKFTSSPGLSTEDLKREASICHMLKHPHIVELLETYSSDGMLYMVFEFMDGADLCFEIVKRADAGFVYSEAVASHYMRQILEALRYCHDNNIIHRDVKPHCVLLASKENSAPVKLGGFGVAIQLGESGLVAGGRVGTPHFMAPEVVKREPYGKPVDVWGCGVILFILLSGCLPFYGTKERLFEGIIKGKYKMNPRQWSHISESAKDLVRRMLMLDPAERITVYEALNHPWLKERDRYAYKIHLPETVEQLRKFNARRKLKGAVLAAVSSHKFNSFYGDPPEELPDFSEDPTSS | failed
5 | MITLKQALSLSQDELETLKNEIDAKVRASDLNAYIKAPSLNGASAKGVPILIKDNISVKGWEITCSSKILEGYVAPYHASVMENLHQNSMAGFGLSNMDEFAMGSTTESSCYGITKNPRDKNRVPGGSSGGSAAAVAGGLAVAALGSDTGGSIRQPASYCGCVGLKPTYGRVSRYGLIAYCSSFDQIGPITQNVEDASILFDAISGYDSKDSTSANLKPTQTFKNLNRDKRFKIAVLMDHIKDASNEVQLAYENTLKALKEMGHEIVEKKMLDSHYQISIYYIISMAEASSNLARFDGVRYGRRAQNIKDLKELYLKSRSEGFGDEVKRRIMLGNFVLSSGYYDAYYLKAQQMRLIIKEQYNKIFEEVDLIFTPVAPTSAHLFNYHASPLEMYLSDIYTIGANLSGLPALSLPVAKDPLGLPIGMQFIAKAFDEQSLLDVSYALEQELDLKLD | failed
6 | YRALYPFEARNHDEMSFNSGDIIQVDEKTVGEPGWLYGSFQGNFGWFPCNYVEKMPSSENEKAVSPKKALLPPTVSLSAT | not failed
7 | AIAASGKRKGLSFDDKKTRLLELFNETCDFYTLKELEKIAPKLKGIITQSVKDVLQSLVDDDLVNSDKCGVQTIYWCLPSEAVAKRQRRLDALQQQLAEKRQKLTALQRQLVQVQAGREDSVERTAVLERLAACEAAWRERQRTLESYLECDPDVLAQRETETKTLIEQANRWTDNLYVIRSYVQRNLGVDLDLFDQQFELKPALQYLE | failed
8 | MARGREAVTLLLVGWGYAPGMQTLEALDAVRRADVVYVESYTMPGSSWLYKSVVEAAGEARVVEASRRDLEERSREIVSRALDAVVAVVTAGDPMVATTHSSLAAEALEAGVAVRYIPGVSGVQAARGATMLSFYRFGGTVTLPGPWRGVTPISVARRIYLNLCAGLHTTALLDVDERGVQLSPGQGVSLLLEADREYAREAGAPALLARLPSVLVEAGAGGGHRVLYWSSLERLSTADVEGGVYSIVIPARLSGVEEWLLAAASGQRRPLEYDRSVYETVEENCKKGVYMEPV | not failed
9 | MTDFSRTFSGTPSAVLPTANRFFRPPLPSAHVARPRLCRRLRDGLDGRLLLIAAPAGFGKSSLAIEFCESLDPRWQSLWLGLSSRESDPGRFLERLLDGLRQYHPTLGEEALGLLKMRQRHQPFAFETWLDDLLDELAPCLDPQRPLLLVLDDYHLAQGAVLDRCLQFLLNHLPEGLVLLVTSRQRPDWHLARLRLSRQLLELSEQDLRLTAEESGALMAASGLELDEDALDALLERSEGWVAGLRLWLLARGDPEEQVSPGVHGADELIRDYLLEEVIERQPPEVQAFLAQTARFERFCAELCDTVREAGDSAAILDHLQQHQVFLVPLDENGQWFRYHHLFSDLLLARPLPDFGPSAGSLHLRACGWFSRHGLLDQAVEQALRAGQPDVAASLVQNLSEEQLLAEQNIATLLRWKMDLPDSLLASTPRLILLYGWALALACQLDAAEELAGQLARFLPAPDESAQRDLLAQWQALSGVIARGRGDIDKAEAHCREALQDLAGERYGTRLQCLSTLSNLAVTRGDFWQARNYNRDALEFAQRYGNPLFEALVHYDRARVLQARGEVARAEEEVRQGLERLQHLPAQRRYAVRGRLLLYRGYLRSLALQPDEARKWIKQGIEETRSCRDVSLVIGYCVLASLEGRLGNYAAAFARLGDVERLMHAWDIPPIYYLAAITLIKCELWLAQGQTELAGVWLQRLGGTYGGQAATPPECSPLLPLHVELLQAGLERREGRPEEAARRLDRLARSTRENGALLPARLALGQLAALHLEQGREREALATLQQAMEGAVGGALLPLHELLVQQPEWLREQLQRFPACPGAQRMRALLPEPPAEPAGSAGEVLSGRELAVLELIAQGLSNQEISERLFISLHTVKSHARHINDKLGVERRTQAVARAKHMGLLR | failed
10 | MVYVGTSGFSFEDWKGVVYPEHLKPSQFLKYYWAVLGFRIVELNFTYYTQPSWRSFVQMLRKTPPDFYFTVKTPGSVTHVLWKEGKDPKEDMENFTRQIEPLIEEQRLKMTLAQFPFSFKFSRKNVEYLEKLRESYPYELAVEFRHYSWDREETYEFLRNHGITFVVVDEPKLPGLFPYRPITTTDYAYFRFHGRNERWFEAEGEERYDYLYSEEELKTLFEDVVELSRRVKETYVFFNNCYKGQAAINALQFKKMLEERV | not failed
11 | LSANYAENLQAQQRSAQRLEHQAWLRTGQTQLAQQVLGQLTLPMLGENILRFFASYLGSVVGAVYVRDEHGRLVRVACYGLSTEEQAREQIESDHHGLLAQAVREGRLLRLEELPEDFYRLSSGLGSGLPRSALLMPATEDGQINGVIELGFLRPLQERDEELLERVGGNLGMSIESA | failed
12 | MLLKQRINANVLVQDGDEPSEDPNELIKQVFALTQESNQLICRIHSTNAQAKLEDGKILLSLLSLRDSYAEQHKILIDAIANTHREPDRYSSREIKWKKVIPVSSLQKQADDISAKLRDLNVKIQAANWQIDLINLEHHHHHH | failed
13 | MELGLYTFADVNPNPADGRGPEGARRLRELLEEIELADQVGLDVFGLGEHHRPDYVVSSPSTVLAAAAVKTKNIRLTSAVSVLSSDDPVRVFQQFSTVDLLSNGRAEIMAGRGSFIESYPLFGYDLEDYDVLFAEKLDLLLALREQEVVTWSGTKHPAINGRGVYPRPLQERLPVWIAVGGTPQSVARAGAMGLPVALAIIGGEYRRFAPLFDLYHEAARRAGQEKTKLRTSINVHGFIADTTDKAADQFYGPQAEVMNRIGRERGWGPTNRAHFDAARGPEGNLFLGEPELVAEKIIKAHGVFKNDRFLLQMAIGLMPHDQIMRGIELYGTKVAPLVRKELTGSADPVKATA | not failed
14 | MSELVRKLSGTAPNPAFPRGAVDTQMHMYLPGYPALPGGPGLPPGALPGPEDYRRLMQWLGIDRVIITQGNAHQRDNGNTLACVAEMGEAAHAVVIIDATTTEKDMEKLTAAGTVGARIMDLPGGAVNLSELDAVDERAHAADWMVAVQFDGNGLLDHLPRLQKIRSRWVFDHHGKFFKGIRTDGPEMAALLKLIDRGNLWFKFAGVYESSRKSWPYADVAAFSRVIAAHAPERIVWGTNWPHNSVRETAAYPDDARLAELTLGWLPDEAARHRALVENPEALFKLSPVKAT | failed
15 | LEEVQLVVEPEGGAVAPGGTVTLTCEVPAQPSPQIHWMKDGVPLPLPPSPVLILPEIGPQDQGTYSCVATHSSHGPQESRAVSISIIEPGEEGPTAGSVGGSGLGTLALALGILGGLGTAALLIGVILWQRRQRRGEERKAPENQEEEEERAELNQSEEPEAGESSTGGP | not failed
16 | MSLIPKVSVIVPIYNVEKYLDQCVQALLAQTLSDIEIILIDDESPDNCPKICDDYAAQYPNIKVIHKKNAGLGMACNSGLDVATGEYVAFCDSDDYVDSDMYMTMYNVAQKYTCDAVFTGLKRITMAGIPTGTVTHQKEFKLYKNKNEIHTLLKDLIASDPYAREERAIQVSAKVVLYRRNLIEKKHLRFVSERILPSEDLIFNVDVLANSNIVCVLPQTFYNYRTNPISISEGHHHHHH | not failed
17 | MDLALAPETLARWQFGITTVYHFLFVPLTISLAALTAGLQTAWVRTEKEKYLRATKFWGKLFLINIAMGVVTGIVQEFQFGMNWSDYSRFVGDVFGAPLAFEALIAFFFESTFIGLWIFGWDKLPKKIHLACIWMVSIGTLLSAYFILAANSWMQHPVGYRINEEKGRAELTDFWQVLTQNTTLNQVFHSFSAAFLTGGAFMVGIAAFHLMRKKHIPVMRTSLRLGLVTLAVGGLLTAVSGDTLGKVMYEQQPMKMAAAEALWDGEKPAPFSVFAYGDVDKGHNKVALEVPGLLSFLAHSDFESYVPGINDTNKALQEQFGPGDYKPIVPVAYWGFRWMIGFGMASFSLGLLGLWLTRKRFLLPPALRTGEDEVPHLVLLKKPLGARLTRMYWLLALWTMAFPLIANSWGWIFTEMGRQPWVVYGVMQTRDAVSPGVSTAEVIISMSVFTLLYAVLAVIEVKLLAKYVKAGPPELTEADLNPPTKIGGDLRDADKPMAFSY | failed
18 | MRELNRLSEEITHILAAGEVVERPASCLKEVIENSIDAGASLIDIKLEKGGIKKIEVYDNGKGIHSDDIEYVFERHTTSKIKSVDDIFKITTMGFRGEALCAISSVSKVTLISRHYEQEQGCKVEVEGGKVLSKTIYPFEKGTRITIEDLFYNTPARLKFLKSPSAEQKYCIEVVEKIAICYPEISFRMQVDNKRQLFTPGDSKVESAIASVFGSEILKNLIDFSHQEEGLKVWGFFVNPVLSKSTRSGYHFYVNRRFIRSKLLSTCIDEAFKNSILTGRFPIVFLFIEINPIDIDVNVHPAKLEIKFKDERYVYNTVYKTVSSTLQSEKMIPKPTLDNLYLPQSVQDVKMVRNLWSYTQEQQSKEKAFQEDFNEFLKIEEQLDFSKVEVGKESKDVITVFSEEFNVETYKIVGYAFDTYIIVQKEDSLYLIDQHAVHERRLFELLKEEIFRNKIQRQILLSPIVIELPISQKEFALENVHIFEKLGFEIDDFGKNEIVVRTYPLLFEGAVDKFFILDIIEMIYNESVEKGITHFSEELLKKIACRAAVKGNMNISDLEKEEIVKLVLVEKKIFNCPHGRPVVIEIQKREIEKMFKRIV | failed
19 | LTFETLAREWFAYNSPRWAESTTYKAKLYMENDLIPGIGARPVKALTRPDLVDLVRKVEARGTLNAAGKIRQWLHQIFRYGLAKGVVESNPATDLDVVAAP | failed
20 | MAFTESDVYNNTAFFEQYMKRRYRENSPNESIEKPVFFQLIGHVQGKQILDLGCGDAKFGAELLEKGCYSYTGIEGSELMYEKAKKQLENKNGSVHFLNLKDYTYPSSTFDLVTSRLALHYIEHLDTIFQNVFQTLKTNGTFTFSVQHPVITSSFESLQTSGKRTIWLVDDYFKLGKRVEPWIDQEVIKYHRTTEEYFTLLQQAGFTITSLKEATPNPTYFQDEEEYKRRLRIPLFLLFSCTK | failed
